Assay results from patent US20250154231A1 (RQBIO COVID, published 2025).
Where two headings read alike, the source gives them in different places.

Columns and labels:
Omicron BA.2 RBD [1] = molecular target: T1, Omicron BA.2 RBD (SARS-CoV-2, UniProt P0DTC2 333-528)
Omicron BA.2 RBD [2] = molecular target: T1, Omicron BA.2 RBD; remark: listed apart in the source
Omicron BA.1 RBD [3] = molecular target: T2, Omicron BA.1 RBD (SARS-CoV-2, UniProt P0DTC2 333-528); test: crystal structure of the complex
T2 construct: domain: RBD

Omicron BA.2.12.1 RBD [4] = molecular target: T3, Omicron BA.2.12.1 RBD (SARS-CoV-2, UniProt P0DTC2 333-528); test: crystal structure of the ternary complex, 2.38 A
T3 construct: domain: RBD

Omicron BA.2 RBD [5] = molecular target: T1, Omicron BA.2 RBD; remark: listed apart in the source
Omicron BA.2 RBD [6] = molecular target: T1, Omicron BA.2 RBD; remark: listed apart in the source
Omicron BA.2 RBD [7] = molecular target: T1, Omicron BA.2 RBD; remark: listed apart in the source
Omicron BA.2.12.1 RBD [8] = molecular target: T3, Omicron BA.2.12.1 RBD
Omicron BA.2 RBD [9] = molecular target: T1, Omicron BA.2 RBD; remark: listed apart in the source
Omicron BA.2 RBD [10] = molecular target: T1, Omicron BA.2 RBD; test: SPR, single injection of RBD over the IgG
Omicron BA.1 RBD [11] = molecular target: T2, Omicron BA.1 RBD; test: ELISA
Omicron BA.2.12.1 RBD [12] = molecular target: T3, Omicron BA.2.12.1 RBD; remark: listed apart in the source
Omicron BA.2 RBD [13] = molecular target: T1, Omicron BA.2 RBD; remark: listed apart in the source

B1: Omi-32 Fab (Fab, V domains shown)
VH: EVQLVESGGGVVQPGRSLRLSCAASGFTFSNYGMHWVRQAPGKGLEWVAVYWYDGGNKFYADSVKGRFTISRDNSKNTLYLQMNSLRVEDTAVYYCARDTAPPDYWGQGTLVTVSS
VL: AIRMTQSPGTLSLSPGERATLSCRASQSISSSFLAWYQQKPGQAPRLLIYGASSRATGIPDRFSGSGSGTDFTLTISRLEPEDFAVYYCQQYGTSPRLTFGGGTKVDIK
Q: Which results are given for B1?
A: Kd (Omicron BA.2 RBD [1]): 5.9 nM; T1/2 (Omicron BA.2 RBD [1]): 71 min; koff (Omicron BA.2 RBD [1]): 0.00016 s⁻¹; kon (Omicron BA.2 RBD [1]): 27000 M⁻¹ s⁻¹

B2: Omi03 (antibody, V domains shown)
VH: EVQLVESGGGLIQPGGSLRLSCAASEIIVSRNYMSWVRQAPGKGLEWVSVIYSGGSTFYADSVKGRFTISRDNSKNTLYLQMNSLRAEDTAVYYCARDLDVVGGTDYWGQGTLVTVSS
VL: not shown
Q: B2 was tested. Which Kd (Omicron BA.2 RBD [2]) did it give?
A: 4.4 nM

Q: And the T1/2 (Omicron BA.2 RBD [2])?
A: 2.9 min

B3: Omi-9 Fab (Fab, V domains shown)
VH: QVQLVESGGGVVQPGRSLRLSCAASGFTFRTYAVHWVRQAPGKGPEWVAVISYDGSNKYYADSVKGRFTLSRDTSKNTLYLQMNSLRAEDTAVYYCASRGDTVTTGDAFDIWGQGTMVTVSS
VL: SYELTQPPSVSVSPGQTARITCSGDALPKQYTYWYQQKPGQPPVLVIYKDSERPSGIPERFSGSSSGTTVTLTISGVQAEDEADYYCQSTDSSATYPGNVVFGGGTKLTVL
Q: Does B3 bind (Omicron BA.1 RBD [3])?
A: binds

B4: Beta-27 Fab (Fab, V domains shown)
VH: EVQLLESGGGLVQPGGSLRLSCAASGLTVRSNYMNWVRQAPGKGLEWVSLIYSGGSTFYADSVKGRFTISRHDSKNTLYLQMNSLRAEDTAVYYCARDLVVYGMDVWGQGTTVTVSS
VL: DIQMTQSPGTLSLSPGERATLSCRASQSVSSSSLAWYQQKHGQAPRLLIYGTSSRATGIPDRFSGSGSGTDFTLTISGLEPEDFAVYYCQQYGSSPLFGGGTKVEIK
Q: Does B4 bind (Omicron BA.2.12.1 RBD [4])?
A: binds

B5: Omi20 (antibody, V domains shown)
VH: EVQLVESGGGLVQPGGSLRLSCEASEITVSSNYMNWVRQAPGKGLEWVSVLFAGGTTYYADSVKGRFTISRDNSKNTLYLQMNTLRIEDTAIYYCARDLVAYGVDVWGQGTTVTVSS
VL: AIQMTQSPSFLSASVGDRVTITCRASQGISGDLAWYQQKPGKAPKLLIYAASTLQSGVPSRFSGSGSGTEFTLTISSLQPEDFATYYCQHLNSYPLTFGGGTKVEIK
Q: How did the Kd (Omicron BA.2 RBD [5]) turn out when B5 was run?
A: 2.4 nM

Q: What about the T1/2 (Omicron BA.2 RBD [5]) of the same binder?
A: 5.6 min

Q: And the koff (Omicron BA.2 RBD [5])?
A: 0.0021 s⁻¹

Q: What about the kon (Omicron BA.2 RBD [5]) of the same binder?
A: 870000 M⁻¹ s⁻¹

B6: Omi-42 Fab (Fab, V domains shown)
VH: EVQLLETGGGLVQPGRSLRLSCAASGFPFDDYAIHWVRLAPGKGLEWVSSISWDSGSIGYADSVKGRFTISRDNAKNSLYLQMNSLRAEDTALYYCAKGAFPGYSSGWYYGLDVWGQGATVTVSS
VL: QSVVTQPPSASGSLGQSVTISCTGTSSDVGGYNYVSWYQQHPGKAPKLMIFEVSKRPSGVPDRFSGSKSGNTASLTVSGLQAEDEADYYCSSYAGNKGVFGGGTKLTVL
Q: How did the Kd (Omicron BA.2 RBD [6]) turn out when B6 was run?
A: 0.99 nM

Q: What about the T1/2 (Omicron BA.2 RBD [6]) of the same binder?
A: 131 min

Q: What about the koff (Omicron BA.2 RBD [6]) of the same binder?
A: 8.8e-05 s⁻¹

Q: What about the kon (Omicron BA.2 RBD [6]) of the same binder?
A: 89000 M⁻¹ s⁻¹

B7: Omi31 (antibody, V domains shown)
VH: EVQLVQSGAEVKKPGSSVKVSCKASGGTFSSYGISWVRQAPGLGLEWMGGVIPILSAKHYAQRFQGRVTITADKSTGTAYMELSSLRSEDTAVYYCARDILHHDDLWGRFYYDGMDVWGQGTTVTVSS
VL: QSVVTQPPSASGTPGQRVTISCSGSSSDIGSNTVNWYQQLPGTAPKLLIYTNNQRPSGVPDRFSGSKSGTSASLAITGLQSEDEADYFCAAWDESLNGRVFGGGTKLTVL
Q: For B7, which Kd (Omicron BA.2 RBD [7]) is on record?
A: 0.0032 nM

Q: What about the T1/2 (Omicron BA.2 RBD [7]) of the same binder?
A: 366 min

Q: And the koff (Omicron BA.2 RBD [7])?
A: 3.1e-05 s⁻¹

Q: And the kon (Omicron BA.2 RBD [7])?
A: 9.8e+06 M⁻¹ s⁻¹

Q: And the Kd (Omicron BA.2.12.1 RBD [8])?
A: 4.1 nM

Q: What about the T1/2 (Omicron BA.2.12.1 RBD [8]) of the same binder?
A: 0.733 min

Q: What about the koff (Omicron BA.2.12.1 RBD [8]) of the same binder?
A: 0.016 s⁻¹

Q: What about the kon (Omicron BA.2.12.1 RBD [8]) of the same binder?
A: 3.8e+06 M⁻¹ s⁻¹

B8: Fab Beta-54 (Fab, V domains shown)
VH: QVQLQESGPGLVKPSETLSLTCTVFGGSITSSNHYWVWIRQPPGKGLEWIGSMYYSGSTAYNPSLTNRVTISVDTSKNQFSLKLSSVTAADTAVYYCARQIGPKRPSQVADWFDPWGQGTLVTVSS
VL: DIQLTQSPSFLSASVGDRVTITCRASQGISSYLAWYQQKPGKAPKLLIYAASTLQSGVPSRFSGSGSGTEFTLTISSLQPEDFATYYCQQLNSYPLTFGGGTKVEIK
Q: How did the Kd (Omicron BA.2 RBD [9]) turn out when B8 was run?
A: 44 nM

Q: What about the T1/2 (Omicron BA.2 RBD [9]) of the same binder?
A: 2.3 min

Q: What about the koff (Omicron BA.2 RBD [9]) of the same binder?
A: 0.005 s⁻¹

Q: And the kon (Omicron BA.2 RBD [9])?
A: 110000 M⁻¹ s⁻¹

B9: Omi36 (antibody, V domains shown)
VH: EVQLVESGGGVVQPGGSLRLSCAASGIIVSANYMTWVRQAPGKGLEWVSVIYPGGSTFYADSVKGRFTISRDNSKNTLYLQMNSLRVEDSAVYYCARDLELAGFNDYWGQGTLVTVSS
VL: DIVMTQSPGTLSLSPGERATLSCRTSQSVSSNYLAWYQQKPGQAPRLLIYGASSRATGIPDRFSGSGSGTDFTLTISRLEPEDFAVYYCQQFGSSPRYTFGQGTKVEIK
Q: Does B9 bind (Omicron BA.2 RBD [10])?
A: binds

Q: Does B9 bind (Omicron BA.1 RBD [11])?
A: binds

B10: Omi06 (antibody, V domains shown)
VH: EVQLLESGPGLVKPSETLSLTCTVSGGSISRYSWSWIRQPAGRGLEWIGRMYSSGGTNYNPSLESRVTMSLDTSKKQFSLKLSSVTAADTAVYYCAAASIDQVWGTYRDAFDIWGQGTMVTVSS
VL: AIRMTQSPSSLAASVGDRVTISCRAGQSISSFLHWYQQKVGKAPKLLIYDASSLQSGVPSRFSGSGSGTDFTLTISSLQPEDFAAYYCQQSYENPLTFGGGTKVDIK
Q: What does the source list for B10?
A: Kd (Omicron BA.2.12.1 RBD [12]): 19 nM; Kd (Omicron BA.2 RBD [13]): 1.3 nM; T1/2 (Omicron BA.2 RBD [13]): 0.983 min; koff (Omicron BA.2 RBD [13]): 0.012 s⁻¹; kon (Omicron BA.2 RBD [13]): 9e+06 M⁻¹ s⁻¹
